Results taken from patent publication US11433139B2, “Peptide vaccines against interleukin-31” (Zoetis Services LLC, priority 2018, dated 2022).

What was measured:
[1] = molecular target: feline IL-31; experiment: Affinity of anti-IL-31 antibodies by surface plasmon resonance (Biacore), feline IL-31 surface; assay type: binding; details: IL-31 conjugated to the surface (FIG. 2)
Summary of the method: (§1)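 IL-31 amine-coupled (NHS/EDC) at 5 μg/mL directly onto the SPR chip, quenched with ethanolamine; candidate mAbs flowed over as analyte. KD from 1:1 model fits; values below 1×10^−11 M are under the instrument's lower quantitation limit.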
Target sequence in this assay (as listed by the source): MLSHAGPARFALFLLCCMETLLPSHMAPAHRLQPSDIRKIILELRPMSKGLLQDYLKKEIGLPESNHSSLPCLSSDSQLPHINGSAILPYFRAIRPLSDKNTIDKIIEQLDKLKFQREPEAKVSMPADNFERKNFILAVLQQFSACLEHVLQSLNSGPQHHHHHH

[2] = molecular target: canine IL-31; experiment: Affinity of anti-IL-31 antibodies by surface plasmon resonance (Biacore), canine IL-31 surface; assay type: binding; details: IL-31 conjugated to the surface (FIG. 2)
Summary of the method: as §1

[3] = tested on: feline IL-31; experiment: Inhibition of feline IL-31 induced pSTAT3 signaling in feline FCWF4 macrophage-like cells; assay type: cell-based; details: 0.2 μg/mL feline IL-31, pSTAT3, FCWF4 cells (FIG. 3)
Summary of the method: (§2)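 DH-82 cells primed with canine IFN-γ 10 ng/mL for 24 h, FCWF4 with feline IFN-γ 125 ng/mL for 96 h, then serum-starved 2 h. mAb pre-incubated 1 h with 1 μg/mL canine or 0.2 μg/mL feline IL-31, cells stimulated 5 min; pSTAT3 by AlphaLISA SureFire, IC50 as half-maximal signalling reduction.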

[4] = molecular target: T1, canine IL-31 (Canis lupus familiaris, UniProt A0A8I3S3D1); experiment: Inhibition of canine IL-31 induced pSTAT3 signaling in canine DH-82 and feline FCWF4 cells; assay type: cell-based
T1 construct: made in house; host or cells: CHO cells (CHROMOS ACE system)
T1 sequence (A0A8I3S3D1 24-159): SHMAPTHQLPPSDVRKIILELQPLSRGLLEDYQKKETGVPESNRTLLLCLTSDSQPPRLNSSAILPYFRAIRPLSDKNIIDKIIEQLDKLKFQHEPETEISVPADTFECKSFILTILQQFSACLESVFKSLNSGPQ
Summary of the method: as §2

[5] = tested on: wildtype feline IL-31; experiment: Biacore binding, single test concentration of antibody, feline IL-31 surface
Method: (§3) For the indirect ELISA, binding (ELISA OD) to wildtype feline IL-31 and a feline IL-31 15H05 mutant which had mutations in the monoclonal antibody 15H05 epitope region was assessed. To confirm binding, biacore analysis was performed using canine, feline, equine, human, the feline 15H05 mutant, and feline 11E12 mutant IL-31 proteins as surfaces and a single test concentration of antibody. The feline IL-31 11E12 mutant had mutations in the monoclonal antibody 11E12 epitope region.
For the indirect ELISA method, antibody binding to wildtype and feline IL-31 15H05 mutant proteins was assessed. […] In comparison, the 11E12 antibody bound to the wild-type feline IL-31 and its binding was not impacted by the mutations in the 15H05 epitope region as evidenced by the data in FIG. 4. To confirm binding, biacore analysis was performed using canine, feline, equine, human, feline 15H05 mutant, and feline 11E12 mutant IL-31 proteins as surfaces and a single test concentration of antibody. Similar to ELISA observations, all antibodies tested bound to wildtype feline IL-31. In agreement with the data described above in this section, mouse antibodies 11 E12 and 15H05 both bound to canine and feline IL-31 surfaces. […] From this group of nine fully canine antibodies, only ZIL1 and ZIL9 cross-reacted with equine IL-31. […]

[6] = tested on: canine IL-31; experiment: Biacore binding, single test concentration of antibody, canine IL-31 surface
Method: as §3
(§4) For the indirect ELISA method, antibody binding to wildtype and feline IL-31 15H05 mutant proteins was assessed. […] In comparison, the 11E12 antibody bound to the wild-type feline IL-31 and its binding was not impacted by the mutations in the 15H05 epitope region as evidenced by the data in FIG. 4. To confirm binding, biacore analysis was performed using canine, feline, equine, human, feline 15H05 mutant, and feline 11E12 mutant IL-31 proteins as surfaces and a single test concentration of antibody. Similar to ELISA observations, all antibodies tested bound to wildtype feline IL-31. In agreement with the data described above in this section, mouse antibodies 11 E12 and 15H05 both bound to canine and feline IL-31 surfaces. […] From this group of nine fully canine antibodies, only ZIL1 and ZIL9 cross-reacted with equine IL-31. Of note, antibody 15H05 was the only one of all assayed herein that bound to canine, feline, and equine IL-31 indicating some level of epitope conservation across the three species. In contrast, none of the antibodies described herein bound to human IL-31. Additional biacore surfaces were used to verify ELISA observations showing differential binding of antibodies to wildtype feline IL-31 and two proteins with mutations in the 15H05 (15H05 mutant) or 11 E12 (11E12 mutant) epitopes. […] Differing results can be attributed to differences in the two assay methodologies.

[7] = tested on: feline 15H05 mutant IL-31; experiment: Biacore binding, single test concentration of antibody, feline 15H05 mutant IL-31 surface
Method: as §3, §4

[8] = tested on: feline 11E12 mutant IL-31; experiment: Biacore binding, single test concentration of antibody, feline 11E12 mutant IL-31 surface
Method: as §3, §4

[9] = tested on: feline IL-31; experiment: Competition binding assessment using Biacore, feline IL-31 surface; details: sequential addition of 15H05 and 11E12, Biacore
Method: To further characterize the IL-31 epitopes bound by mAbs 15H05 and 11 E12, blocking experiments were performed using biacore where the surface containing the IL-31 protein was generated followed by sequential addition of antibodies. FIGS. 7A and 7B show the relative binding of each antibody to IL-31 following capture of 11E12 or 15H05. The columns labeled HBS-EP (assay buffer) indicate the maximum signal obtained from each antibody binding to the IL-31 surface alone without competition. […] The sensograms related to FIG. 7A show the disassociation kinetics of both antibodies are very slow on this newly formed biacore surface therefore no additional occupation of binding sites can occur with addition of the same antibody (data not shown).
Binding of additional antibody in the presence of the same antibody is a result of the increased off rate due to the poorer quality of the surface used. Increased off rates can be seen and compared to the KD values from newly formed feline IL-31 surfaces in FIG. 2.

Sequence of canine IL-31 (as listed by the source): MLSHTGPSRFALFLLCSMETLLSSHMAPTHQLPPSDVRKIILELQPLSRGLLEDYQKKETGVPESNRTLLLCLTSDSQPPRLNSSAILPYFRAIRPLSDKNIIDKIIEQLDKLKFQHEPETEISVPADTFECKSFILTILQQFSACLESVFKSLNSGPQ
Sequence of feline 11E12 mutant IL-31 (as listed by the source, change not shown): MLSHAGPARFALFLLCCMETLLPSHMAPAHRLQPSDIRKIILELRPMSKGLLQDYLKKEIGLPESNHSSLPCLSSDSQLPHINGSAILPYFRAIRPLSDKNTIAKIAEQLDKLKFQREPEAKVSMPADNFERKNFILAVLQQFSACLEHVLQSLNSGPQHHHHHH
Sequence of wildtype feline IL-31 (as listed by the source): as the sequence (as listed by the source, change not shown) above, with A104D, A107I counted along it

B1: 15H05: mouse anti IL-31 monoclonal antibody, VH SEQ ID NO: 67, VL SEQ ID NO: 69 (antibody, listed as Mus musculus, V domains shown)
VH: QVQLQQSAAELARPGASVKMSCKTSGYTFTSYTIHWIKQRPGQGLEWIGNINPTSGYTENNQRFKDKTTLTVDRSSNTAYLQLHSLTSEDSAVYFCARWGFKYDGEWSFDVWGAGTTVTVSS
VL: DIQMNQSPSSLSASLGDTITVTCRASQGISIWLSWYQQKPGNIPKVLINKASNLHIGVPPRFSGSGSGTHFTLTITSLQPEDIATYYCLQSQTYPLTFGGGTKLEIN
affinity (KD) to feline IL-31 ([1]; listed as Mu-15H05): sub-nanomolar
affinity (KD) to feline IL-31 ([1]; listed as mAb 15H05): high
affinity (KD) to canine IL-31 ([2]; listed as Mu-15H05): sub-nanomolar
affinity (KD) to canine IL-31 ([2]; listed as mAb 15H05): high
potency (IC50) against feline IL-31 in feline FCWF4 cells [3]: slight increase in IC50
blocking of canine IL-31 signaling in canine cells ([4]; canine IL-31, canine cells): capable of blocking canine IL-31 signaling
blocking of canine IL-31 signaling in feline cells ([4]; canine IL-31, feline cells): capable of blocking canine IL-31 signaling
binding to wildtype feline IL-31 (Biacore) [5]: bound
binding to canine IL-31 (Biacore) [6]: bound
binding to feline 15H05 mutant IL-31 (Biacore) [7]: did not bind
binding to feline 11E12 mutant IL-31 (Biacore) [8]: retained binding
competition binding on feline IL-31 [9]: no overlap in the epitope recognized
